This series has as its system MS2 coat protein. Description: apparent KD of MS2 coat protein; designed switch direction (-1 OFF switch, 1 ON switch): 1; higher = weaker reporter binding. Summed up: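 Designed RNA switches with common flanks were transcribed on Illumina chips by stalled E. coli RNA polymerase and titrated with SNAP-549-labelled MS2 coat protein, from 0.7 or 1.5 nM doubling to 3 µM, in Tris-HCl pH 7.5 buffer with KCl, MgCl2, BSA, DTT, tRNA and Tween-20. Steps lasted 0.8–1.5 h (lowest) to 10–20 min (highest). Titrations ran without input, with 200 uM small-molecule ligand, or with an oligonucleotide input. Normalised cluster fluorescence was curve-fitted, and apparent KD is the per-design median over clusters.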

Setting [1] is: input ligand: microRNA oligo, concentration not stated.
[2] abbreviates: Eterna round: R95, input ligand: FMN 200 uM.
The mark [3] stands for this setting: Eterna round: R95, input ligand: microRNA oligo, concentration not stated.
[4] abbreviates: Eterna round: R95, input ligand: none.

Take “AGUAGUGUAACAUGAGGAUCACCCAUGUAAGUAGAUGUAACCUAGGAUAUGGAUGAUAUGUUAGUCCAGAAGGAGGAUUGAAUA [JR_SSNG3_Sub037] (Eterna round: R96, puzzle: Same State NG 3)”: the “apparent KD of MS2 coat protein” value (input ligand: FMN 200 uM) came out at 0.0155 µM, the “apparent KD of MS2 coat protein” value under setting [1] amounted to 0.0206 µM and the “apparent KD of MS2 coat protein” value (input ligand: none) turned out to be 0.0444 µM.
For the sequence “AUAAGUUUGAUGCUCGUCUCUCCGUACAGACAUGAGGAUCACCCAUGUAGUCGGGAAGUAGCCCGGCCUGUAUGGCC [Magequ] (puzzle: Sensor for hsa-mir-208a)”, the “apparent KD of MS2 coat protein” value by setting is: under setting [2], 0.0152 µM; under setting [3], 0.0157 µM; under setting [4], 0.0144 µM.
Consider “GGCCAGAGUCAAGGAUAUGCUACCGUUUCGGUAGCAGAAGGUGAUCACAUGAGGAUCACCCAUGUAUACGCUGGGAAGCGGGCC [JL SSNG1 3.65] (Eterna round: R96, puzzle: Same State NG 1)”, for which the “apparent KD of MS2 coat protein” value was found to be 0.163 µM (input ligand: FMN 200 uM), 0.155 µM under setting [1] and 0.119 µM (input ligand: none).
The matching figures for “GUUACAUGAGGAUCACCCAUGUAUGUGUGGGAGUAAGUGUCUUAGGAUAUCUGUUAUGUAAUUUAAGAGAAGGAAGAUUGUUGU [JMF's solution 34] (Eterna round: R96, puzzle: Same State NG 3)”: 0.282 µM, 0.3 µM and 0.296 µM.
For “AUUACUAACAUAGGAUAUCAUGCGAAAAUUGCGUGAGAAGGGUGGACGCUGUCAUUCACGGAGGACAUGAGGAUCACCCAUGUC [SameState NG1 #72] (Eterna round: R96, puzzle: Same State NG 1)” the same measures were 0.264 µM, 0.103 µM and 0.143 µM.
For “ACAUGAGGAUCACCCAUGUGAAAAGACCUAGAGGUGAAGCCGCAGGAUAUAUCACAAACGAGAAGAUAGAAGGGCGUACGCAUG [Eternabot solution 9] (Eterna round: R96, puzzle: Same State NG 3)”, the “apparent KD of MS2 coat protein” value came to 0.0897 µM (input ligand: FMN 200 uM), 0.0605 µM under setting [1] and 0.0721 µM (input ligand: none).
As for “CCAGCUUCGGCAGGAUAUGGCGCGCCACUACGCCCAGAAGGGCCGGAAGAUACUACAACCACUACAUGAGGAUCACCCAUGUCA [Eternabot solution 1] (Eterna round: R96, puzzle: Same State NG 1)”, the “apparent KD of MS2 coat protein” value runs as follows: (input ligand: FMN 200 uM) 0.0307 µM; under setting [1], 0.00579 µM; (input ligand: none) 0.0668 µM.
For “GUGGAGAAUUAAGGAUAUUGAAUACAUAUGUUUAACAUGAGGAUCACCCAUGUGGGUUGCGGUAUCGAGAAGGUAAAUUACUGG [salish99_SSNG2_r04_033] (Eterna round: R96, puzzle: Same State NG 2)” the same measures were 0.126 µM, 0.0743 µM and 0.11 µM.
As to “UGUUGUAUUACAGGAUAUCUAUUGGUUUUAUUUAGAGAAGGGUAUUCACAUGAGGAUCACCCAUGUAUAUACGAGGAAGUUGUG [JMF's solution 72] (Eterna round: R96, puzzle: Same State NG 1)”, the “apparent KD of MS2 coat protein” value under setting [1] amounted to 0.0433 µM.
On to “UUUAGUUGCGCGCAGGAUAUGUAUUAAUAUACAUGAGGAUCACCCAUGUGAGAUCGAAUAGAUCUACAGAAGGGCGAAUCGCGAC [Laonerce - 26] (puzzle: Same State 2)”, for which the “apparent KD of MS2 coat protein” value stood at 0.0329 µM under setting [2], 0.168 µM under setting [3] and 0.611 µM under setting [4].
For “UCUCGGGUCGUAGGAUAUGUAGGAUAUGUACAUGAGGAUCACCCAUGUCUACCAGAGACAGAAGGACAGAAGGACGAGCCGAGC [pwkr ssNG2 2FMN 1F5s.7] (Eterna round: R96, puzzle: Same State NG 2)”, the “apparent KD of MS2 coat protein” value (input ligand: FMN 200 uM) came out at 0.0195 µM, the “apparent KD of MS2 coat protein” value under setting [1] is 0.019 µM and the “apparent KD of MS2 coat protein” value (input ligand: none) worked out at 0.0363 µM.
On to “UAUUUAAUCAUAGGAUAUAGUGUGUAAUUUGGACUAGAAGGAUGUAACAUGAGGAUCACCCAUGUGGUAAAUGGGAUACAUUCC [JR_SSNG1_Sub099] (Eterna round: R96, puzzle: Same State NG 1)”, for which the “apparent KD of MS2 coat protein” value under setting [1] was 0.0919 µM.
Still for that read-out and setting: with “GAGUAGUUAAAAGGAUAUUGAUUAUUGUAGGAUCAAGAAGGUUUUAACAUGAGGAUCACCCAUGUAGGACUAUAAAUGUGAAAA [Parity 93 - Jieux - Same State NG 1] (Eterna round: R96, puzzle: Same State NG 1)” the figure was 0.0125 µM; with “UGUUGUAUUACAGGAUAUCUAUGAUUUUGAUUUAGAGAAGGGUAUUCACAUGAGGAUCACCCAUGUAUAUACGAGGAAGUUGUG [JMF's solution 64] (Eterna round: R96, puzzle: Same State NG 1)”, 0.0404 µM.
Take “GUUACAUGAGGAUCACCCAUGUAUGUGUGGGAGUAAGUGUCUUAGGAUAUCUGUUAUCUAAUUUAAGAGAAGGAAGAUUGUUGU [JMF's solution 35] (Eterna round: R96, puzzle: Same State NG 3)”: the “apparent KD of MS2 coat protein” value is, setting by setting: (input ligand: FMN 200 uM) 0.162 µM; under setting [1], 0.0534 µM; (input ligand: none) 0.0872 µM.
Turning to “UUGAGGAAUUAAGGAUAUUGAGUACAUAUGUUUAACAUGAGGAUCACCCAUGUGGGUUGCGGUAUCGAGAAGGUAAAUUACAAG [Mat - same State NG 2 - JL mod - D74] (Eterna round: R96, puzzle: Same State NG 2)”, under setting [1], the “apparent KD of MS2 coat protein” value turned out to be 0.0978 µM.
Consider “GGUACAAAUACAGGAUAUGCUAUCCUUUGGGUAGCAGAAGGGUGGUAACAUGAGGAUCACCCAUGUGUGCCAGGGCGUGAGCCC [JL SSNG1 1.98] (Eterna round: R96, puzzle: Same State NG 1)”, for which the “apparent KD of MS2 coat protein” value is, setting by setting: (input ligand: FMN 200 uM) 0.387 µM; under setting [1], 0.206 µM; (input ligand: none) 0.657 µM.
As for “GUUGAGAAAUAAGGAUAUGCAUGGAAGACACAUGAGGAUCACCCAUGUGGGAGGGAAACCAGGAGGUAGAAGGUAUUGGGAAAC [AK SSNG2-V2-23.1] (Eterna round: R96, puzzle: Same State NG 2)”, the “apparent KD of MS2 coat protein” value (input ligand: FMN 200 uM) is 0.0438 µM, the “apparent KD of MS2 coat protein” value under setting [1] worked out at 0.0287 µM and the “apparent KD of MS2 coat protein” value (input ligand: none) worked out at 0.0491 µM.
As to “GUUAUACAUGAGGAUCACCCAUGUCAAUGUAGUCGAGGAUAUGGGUAGCUAUGAGGCGUACUAGAAGGCGAGGAGU [JL-ss1-3.16 ViennaUCT mod] (puzzle: Same State 1)”, the “apparent KD of MS2 coat protein” value under setting [3] amounted to 0.0904 µM.
As to “UCAGUCAUGUAAGGAUAUGCAGCCGAAACGGCUGCAGAAGGUACUAUAAUUACAUGAGGAUCACCCAUGUUAUAAAUAAAAUAU [Mat - Same State NG 1 - JL mod - D66] (Eterna round: R96, puzzle: Same State NG 1)”, the “apparent KD of MS2 coat protein” value runs as follows: (input ligand: FMN 200 uM) 0.0231 µM; under setting [1], 0.043 µM; (input ligand: none) 0.0626 µM.
The matching figures for “UUGAGAUGUACAGGAUAUGGUGAGGAUCACCCACUAGAAGGGUGCACAUGUGAAUCGGACAUGAGGAUCACCCAUGUAGGGCGU (Eterna round: R96, puzzle: Same State NG 1)”: 0.187 µM, 0.207 µM and 0.369 µM.
Take “UUAAUUAAUUAAUUAUACAUGAGGAUCACCCAUGUAAGUGAUCAGGAUAUCAGCUCGAAUAGAGCUGAGAAGGGAUACAUGUAA [SSNG3/13-A1] (Eterna round: R96, puzzle: Same State NG 3)”: the “apparent KD of MS2 coat protein” value under setting [1] was 0.148 µM.
Consider “GCGAGCGUACUUGCAGACAUGAGGAUCACCCAUGUAACUGGACAGGAUAUGGUACCGUUUCGGUACCAGAAGGGUUUACAUGUU [JL SSNG3 3.51] (Eterna round: R96, puzzle: Same State NG 3)”, for which the “apparent KD of MS2 coat protein” value runs as follows: (input ligand: FMN 200 uM) 0.0202 µM; under setting [1], 0.0272 µM; (input ligand: none) 0.0477 µM.
As to “GGUCCAGCCUGAGCUGGACAAGAGCAUGUACAUGAGGAUCACCCAUGUCAUGUACAAGCUUUUUGCUCGUCUUAAAA [JL mod - D87 - 2] (puzzle: Sensor for hsa-mir-208a)”, the “apparent KD of MS2 coat protein” value stood at 0.433 µM under setting [2], 0.0145 µM under setting [3] and 0.54 µM under setting [4].
The matching figures for “AGCUAUCGAAAACGAUAGCAAAAGUAUGUACAUGAGGAUCACCCAUGUCAUGUACAAGCUUUUUGCUCGUCUUAAAA [Zipper 23 - 10] (puzzle: Sensor for hsa-mir-208a)”: 0.664 µM, 0.0196 µM and 0.638 µM.
As to “CAGCGCUGUCGAGAGGAUAUGCGGUGAUGGACAUGAGGAUCACCCAUGUUAGCGACAGCAUUACGGUAGAAGGCUUCACAGCUGC [Soteed Omei mod 15] (Eterna round: R96, puzzle: Same State 2)”, the “apparent KD of MS2 coat protein” value was found to be 0.287 µM (input ligand: FMN 200 uM), 0.0144 µM under setting [1] and 0.0557 µM (input ligand: none).
As for “AGCAUACAUGAGGAUCACCCAUGUCAACGUAGUCGAGGAUAUGGGCAGCCGUGAGGCGAACCAGAAGGCGAAUUGA [Mat - Same State 1 - Mod of JL - D3] (puzzle: Same State 1)”, the “apparent KD of MS2 coat protein” value under setting [2] stood at 0.0237 µM, the “apparent KD of MS2 coat protein” value under setting [3] worked out at 0.0346 µM and the “apparent KD of MS2 coat protein” value under setting [4] came out at 0.0389 µM.
For “AGUCCAGCGAAAGCUGGACAAAGACAUGUACAUGAGGAUCACCCAUGUCAUGUACAAGUUUUUUGCUCGUCUUAUAA (puzzle: Sensor for hsa-mir-208a)” the same measures were 0.0344 µM, 0.0127 µM and 0.0358 µM.
On to “UAGUACAUGCUUUUUGUCUGUCUUAGAUCACAUGAGGAUCACCCAUGUUUGGUGAAAGUUAUUUUGUUUAUGACUAU [JR_SHM208A_Sub060] (puzzle: Sensor for hsa-mir-208a)”, for which the “apparent KD of MS2 coat protein” value under setting [2] worked out at 0.257 µM, the “apparent KD of MS2 coat protein” value under setting [3] came out at 0.194 µM and the “apparent KD of MS2 coat protein” value under setting [4] amounted to 0.43 µM.

These data come from the supplement of paper PMC9170038.
